The source of these data is the supplement of paper PMC11246515.

A short description of the data set: total protein half-life in vivo (active degradation + dilution); higher = more stable protein.
Where [1] appears, read: E. coli NCM3722 delta-clpP delta-lon delta-hslV, growth: N-lim chemostat, doubling time 6 h.
[2] abbreviates: E. coli NCM3722 delta-hslV, growth: N-lim chemostat, doubling time 6 h.
[3] abbreviates: E. coli NCM3722 delta-lon, growth: N-lim chemostat, doubling time 6 h.
Where [4] appears, read: E. coli NCM3722 delta-clpP, growth: N-lim chemostat, doubling time 6 h.
[5] abbreviates: E. coli NCM3722 delta-smpB, growth: N-lim chemostat, doubling time 6 h.
[6] abbreviates: wild type E. coli NCM3722, growth: C-lim chemostat, doubling time 3 h.
Setting [7] is: wild type E. coli NCM3722, growth: C-lim chemostat, doubling time 6 h.
Where [8] appears, read: wild type E. coli NCM3722, growth: C-lim chemostat, doubling time 12 h.
Where [9] appears, read: wild type E. coli NCM3722, growth: N-lim chemostat, doubling time 6 h.
Where [10] appears, read: wild type E. coli NCM3722, growth: N-lim chemostat, doubling time 12 h.
The mark [11] stands for this setting: wild type E. coli NCM3722, growth: P-lim chemostat, doubling time 6 h.
Setting [12] is: wild type E. coli NCM3722, growth: P-lim chemostat, doubling time 12 h.

± gives the standard deviation of the averaged measurements.

Regarding “MIELVIVSRLLEYPDAALWQHQQEMFEAIAASKNLPKEDAHALGIFLRDLTTMDPLDAQAQYSELFDRGRATSLLLFEHVHGESRDRGQAMVDLLAQYEQHGLQLNSRELPDHLPLYLEYLAQLPQSEAVEGLKDIAPILALLSARLQQRESRYAVLFDLLLKLANTAIDSDKVAEKIADEARDDTPQALDAVWEEEQVKFFADKGCGDSAITAHQRRFAGAVAPQYLNITTGGQH [P0AF26]”, the “total protein half-life in vivo” value came out at 3.83 ± 0.37 h under setting [1], 0.814 h under setting [2] and 2.04 ± 0.028 h under setting [3].

Take “MRIHSPYPASWALAQRIGYLYSEGEIIYLADTPFERLLDIQRQVGQCQTMTSLSQADFEARLEAVFHQNTGESQQIAQDIDQSVDLLSLSEEMPANEDLLNEDSAAPVIRLINAILSEAIKETASDIHIETYEKTMSIRFRIDGVLRTILQPNKKLAALLISRIKVMARLDIAEKRIPQDGRISLRIGRRNIDVRVSTLPSIYGERAVLRLLDKNSLQLSLNNLGMTAADKQDLENLIQLPHGIILVTGPTGSGKSTTLYAILSALNTPGRNILTVEDPVEYELEGIGQTQVNTRVDMSFARGLRAILRQDPDVVMVGEIRDTETAQIAVQASLTGHLVLSTLHTNSASGAVTRLRDMGVESFLLSSSLAGIIAQRLVRRLCPQCRQFTPVSPQQAQMFKYHQLAVTTIGTPVGCPHCHQSGYQGRMAIHEMMVVTPELRAAIHENVDEQALERLVRQQHKALIKNGLQKVISGDTSWDEVMRVASATLESEA”: under setting [1], the “total protein half-life in vivo” value worked out at 6.61 h.

Take “MFDFASYHRAATLADAINLLADNPQAKLLAGGTDVLIQLHHHNDRYRHIVDIHNLAELRGITLAEDGSLRIGSATTFTQLIEDPITQRHLPALCAAATSIAGPQIRNVATYGGNICNGATSADSATPTLIYDAKLEIHSPRGVRFVPINGFHTGPGKVSLEHDEILVAFHFPPQPKEHAGSAHFKYAMRDAMDISTIGCAAHCRLDNGNFSELRLAFGVAAPTPIRCQHAEQTAQNAPLNLQTLEAISESVLQDVAPRSSWRASKEFRLHLIQTMTKKVISEAVAAAGGKLQ”: the “total protein half-life in vivo” value is, setting by setting: under setting [1], 4.54 ± 1.2 h; under setting [4], 2.5 ± 0.1 h; under setting [2], 3.19 h; under setting [3], 3.61 ± 0.29 h; under setting [5], 2.379 ± 0.0096 h; under setting [6], 2.25 ± 0.11 h. Moreover, the “total protein half-life in vivo” value reads like this: under setting [7], 4.84 ± 0.91 h; under setting [8], 6.07 ± 0.36 h; under setting [9], 2.52 ± 0.089 h; under setting [10], 4 h; under setting [11], 4.56 ± 0.36 h; under setting [12], 9.6 ± 1.6 h.

Take “MMELMVVHPHIFWLSLGGLLLAAEMLGGNGYLLWSGVAAVITGLVVWLVPLGWEWQGVMFAILTLLAAWLWWKWLSRRVREQKHSDSHLNQRGQQLIGRRFVLESPLVNGRGHMRVGDSSWPVSASEDLGAGTHVEVIAIEGITLHIRAVSS [P0AAS3]”: the “total protein half-life in vivo” value stood at 6.35 ± 0.63 h under setting [1]; 6.38 ± 0.81 h under setting [4]; 5.57 ± 0.15 h under setting [2]; 5.91 h under setting [3]; 6.81 h under setting [5]; 2.86 h under setting [6]. Further, the “total protein half-life in vivo” value reads like this: under setting [7], more than 8 h; under setting [8], 10.5 ± 1.8 h; under setting [9], 6.42 ± 0.38 h; under setting [10], 11.1 ± 0.17 h; under setting [11], 7.12 h; under setting [12], 10.6 ± 0.41 h.

Turning to “MNTTTPMGMLQQPRPFFMIFFVELWERFGYYGVQGVLAVFFVKQLGFSQEQAFVTFGAFAALVYGLISIGGYVGDHLLGTKRTIVLGALVLAIGYFMTGMSLLKPDLIFIALGTIAVGNGLFKANPASLLSKCYPPKDPRLDGAFTLFYMSINIGSLIALSLAPVIADRFGYSVTYNLCGAGLIIALLVYIACRGMVKDIGSEPDFRPMSFSKLLYVLLGSVVMIFVCAWLMHNVEVANLVLIVLSIVVTIIFFRQAFKLDKTGRNKMFVAFVLMLEAVVFYILYAQMPTSLNFFAINNVHHEILGFSINPVSFQALNPFWVVLASPILAGIYTHLGNKGKDLSMPMKFTLGMFMCSLGFLTAAAAGMWFADAQGLTSPWFIVLVYLFQSLGELFISALGLAMIAALVPQHLMGFILGMWFLTQAAAFLLGGYVATFTAVPDNITDPLETLPVYTNVFGKIGLVTLGVAVVMLLMVPWLKRMIATPESH”, the “total protein half-life in vivo” value reads like this: under setting [1], 6.66 ± 0.32 h; under setting [4], 6.8 ± 0.1 h; under setting [3], 5.78 ± 0.79 h; under setting [5], more than 8 h; under setting [6], more than 4 h; under setting [10], 6.12 h. Also, the “total protein half-life in vivo” value by setting is: under setting [11], 6.47 h; under setting [12], 11.1 ± 1.4 h.

With “MGGISIWQLLIIAVIVVLLFGTKKLGSIGSDLGASIKGFKKAMSDDEPKQDKTSQDADFTAKTIADKQADTNQEQAKTEDAKRHDKEQV”, the “total protein half-life in vivo” value turned out to be 4.809 ± 0.026 h under setting [1]; 4.72 ± 0.96 h under setting [4]; 4.51 ± 0.3 h under setting [2]; 4.05 ± 0.54 h under setting [3]; 4.55 ± 0.22 h under setting [5]; 2.93 ± 0.082 h under setting [6]. The “total protein half-life in vivo” value under setting [7] worked out at 5.337 ± 0.019 h; the “total protein half-life in vivo” value under setting [8] came out at 9.34 ± 0.37 h; the “total protein half-life in vivo” value under setting [9] stood at 4.72 ± 0.21 h; the “total protein half-life in vivo” value under setting [10] was 9.53 ± 2.4 h; the “total protein half-life in vivo” value under setting [11] was found to be 4.41 ± 0.37 h; the “total protein half-life in vivo” value under setting [12] was 8.96 ± 0.53 h.

Turning to “MKFDKPAGENPIDQLKVVGRPHDRIDGPLKTTGTARYAYEWHEEAPNAAYGYIVGSAIAKGRLTALDTDAAQKAPGVLAVITASNAGALGKGDKNTARLLGGPTIEHYHQAIALVVAETFEQARAAASLVQAHYRRNKGAYSLADEKQAVNQPPEDTPDKNVGDFDGAFTSAAVKIDATYTTPDQSHMAMEPHASMAVWDGNKLTLWTSNQMIDWCRTDLAKTLKVPVENVRIISPYIGGGFGGKLFLRSDALLAALAARAVKRPVKVMLPRPSIPNNTTHRPATLQHLRIGADQSGKITAISHESWSGNLPGGTPETAVQQSELLYAGANRHTGLRLATLDLPEGNAMRAPGEAPGLMALEIAIDELAEKAGIDPVEFRILNDTQVDPADPTRCFSRRQLIECLRTGADKFGWKQRNATPGQVRDGEWLVGHGVAAGFRNNLLEKSGARVHLEQNGTVTVETDMTDIGTGSYTILAQTAAEMLGVPLEQVAVHLGDSSFPVSAGSGGQWGANTSTSGVYAACMKLREMIASAVGFDPEQSQFADGKITNGTRSATLHEATAGGRLTAEESIEFGTLSKEYQQSTFAGHFVEVGVHSATGEVRVRRMLAVCAAGRILNPKTARSQVIGAMTMGMGAALMEELAVDDRLGYFVNHDMAGYEVPVHADIPKQEVIFLDDTDPISSPMKAKGVGELGLCGVSAAIANAVYNATGIRVRDYPITLDKLLDKLPDVV”, the “total protein half-life in vivo” value is, setting by setting: under setting [1], 6.02 ± 1.7 h; under setting [4], 1.06 h; under setting [3], 4.29 ± 0.36 h; under setting [7], 6.1 h.

Turning to “MNNSAFTFQTLHPDTIMDALFEHGIRVDSGLTPLNSYENRVYQFQDEDRRRFVVKFYRPERWTADQILEEHQFALQLVNDEVPVAAPVAFNGQTLLNHQGFYFAVFPSVGGRQFEADNIDQMEAVGRYLGRMHQTGRKQLFIHRPTIGLNEYLIEPRKLFEDATLIPSGLKAAFLKATDELIAAVTAHWREDFTVLRLHGDCHAGNILWRDGPMFVDLDDARNGPAVQDLWMLLNGDKAEQRMQLETIIEAYEEFSEFDTAEIGLIEPLRAMRLVYYLAWLMRRWADPAFPKNFPWLTGEDYWLRQTATFIEQAKVLQEPPLQLTPMY [P0C0K3]”, the “total protein half-life in vivo” value under setting [1] was 3.88 ± 0.5 h; the “total protein half-life in vivo” value under setting [4] amounted to 5.41 ± 1.8 h; the “total protein half-life in vivo” value under setting [2] stood at 4.37 ± 0.62 h; the “total protein half-life in vivo” value under setting [3] amounted to 4.43 ± 0.29 h; the “total protein half-life in vivo” value under setting [5] was determined as 4.22 ± 0.26 h; the “total protein half-life in vivo” value under setting [6] worked out at 2.99 ± 0.046 h. For the same sequence, the “total protein half-life in vivo” value by setting is: under setting [7], 5.38 ± 0.61 h; under setting [8], 10.3 ± 1.3 h; under setting [9], 4.23 ± 0.21 h; under setting [10], 6.67 ± 0.66 h; under setting [11], 6.02 ± 0.38 h; under setting [12], 10.3 ± 0.64 h.
